Test results from patent US20130273029A1 (Novartis, published 2013).
Numbering of substitutions follows the chain as printed.

B1: MOR13752 (antibody, human IgG1, kappa, V domains shown)
VH: QVQLVQSGAEVKKPGESLKISCKGSGYSFTNYWVAWVRQMPGKGLEWMGIIYPGGSDTIYSPSFQGQVTISADKSISTAYLQWSSLKASDTAMYYCARVHIIQPPSAWSYNAMDVWGQGTLVTVSS
VL: DIQMTQSPSSLSASVGDRVTITCRASQSISTYLNWYQQKPGKAPKLLIFGASNLQSGVPSRFSGSGSGTDFTLTISSLQPEDFATYYCQQSITELFTFGQGTKVEIKR
notes: tested as IgG
B2: MOR12924 (antibody, human IgG1, kappa, V domains shown)
VH: B1 VH with Y32S, G55N
VL: B1 VL with I92V, T93W, L95P, F96A
B3: MOR12923 (antibody, human IgG1, kappa, V domains shown)
VH: B1 VH with Y32S, G55N
VL: B1 VL with I92M, T93Y, E94L, L95P
B4: MOR13766 (antibody, human IgG1, kappa, V domains shown)
VH: B1 VH with N31T, Y32T, G55S
VL: B1 VL
notes: tested as IgG
B5: MOR13750 (antibody, human IgG1, kappa, V domains shown)
VH: B1 VH with N31S, Y32S
VL: B1 VL
notes: tested as IgG
B6: MOR13754 (antibody, human IgG1, kappa, V domains shown)
VH: B1 VH with N31S
VL: B1 VL
notes: tested as IgG
B7: MOR13761 (antibody, human IgG1, kappa, V domains shown)
VH: B1 VH with N31Q, Y32T, G55Q
VL: B1 VL
notes: tested as IgG
B8: MOR13758 (antibody, human IgG1, kappa, V domains shown)
VH: B1 VH with N31L, G55Q
VL: B1 VL
notes: tested as IgG
B9: MOR13763 (antibody, human IgG1, kappa, V domains shown)
VH: B1 VH with N31S, G55Q
VL: B1 VL
notes: tested as IgG
B10: MOR13759 (antibody, human IgG1, kappa, V domains shown)
VH: B1 VH with N31T, Y32T, G55L
VL: B1 VL
notes: tested as IgG
B11: MOR13755 (antibody, human IgG1, kappa, V domains shown)
VH: B1 VH with N31T, G55Q
VL: B1 VL
notes: tested as IgG
B12: MOR13756 (antibody, human IgG1, kappa, V domains shown)
VH: B1 VH with N31L, Y32T, G55Q
VL: B1 VL
notes: tested as IgG
B13: MOR13765 (antibody, human IgG1, kappa, V domains shown)
VH: B1 VH with N31G, Y32S, G55T
VL: B1 VL
notes: tested as IgG
B14: MOR13762 (antibody, human IgG1, kappa, V domains shown)
VH: B1 VH with Y32T, G55Q
VL: B1 VL
notes: tested as IgG

Each binder was assayed against T1, Human HER3, endogenous, on human cancer cell lines (SK-Br-3, MCF7, BT-474) (human, UniProt P21860 20-1342) (assay: cell-based or functional assay).
T1 sequence (P21860 20-1342): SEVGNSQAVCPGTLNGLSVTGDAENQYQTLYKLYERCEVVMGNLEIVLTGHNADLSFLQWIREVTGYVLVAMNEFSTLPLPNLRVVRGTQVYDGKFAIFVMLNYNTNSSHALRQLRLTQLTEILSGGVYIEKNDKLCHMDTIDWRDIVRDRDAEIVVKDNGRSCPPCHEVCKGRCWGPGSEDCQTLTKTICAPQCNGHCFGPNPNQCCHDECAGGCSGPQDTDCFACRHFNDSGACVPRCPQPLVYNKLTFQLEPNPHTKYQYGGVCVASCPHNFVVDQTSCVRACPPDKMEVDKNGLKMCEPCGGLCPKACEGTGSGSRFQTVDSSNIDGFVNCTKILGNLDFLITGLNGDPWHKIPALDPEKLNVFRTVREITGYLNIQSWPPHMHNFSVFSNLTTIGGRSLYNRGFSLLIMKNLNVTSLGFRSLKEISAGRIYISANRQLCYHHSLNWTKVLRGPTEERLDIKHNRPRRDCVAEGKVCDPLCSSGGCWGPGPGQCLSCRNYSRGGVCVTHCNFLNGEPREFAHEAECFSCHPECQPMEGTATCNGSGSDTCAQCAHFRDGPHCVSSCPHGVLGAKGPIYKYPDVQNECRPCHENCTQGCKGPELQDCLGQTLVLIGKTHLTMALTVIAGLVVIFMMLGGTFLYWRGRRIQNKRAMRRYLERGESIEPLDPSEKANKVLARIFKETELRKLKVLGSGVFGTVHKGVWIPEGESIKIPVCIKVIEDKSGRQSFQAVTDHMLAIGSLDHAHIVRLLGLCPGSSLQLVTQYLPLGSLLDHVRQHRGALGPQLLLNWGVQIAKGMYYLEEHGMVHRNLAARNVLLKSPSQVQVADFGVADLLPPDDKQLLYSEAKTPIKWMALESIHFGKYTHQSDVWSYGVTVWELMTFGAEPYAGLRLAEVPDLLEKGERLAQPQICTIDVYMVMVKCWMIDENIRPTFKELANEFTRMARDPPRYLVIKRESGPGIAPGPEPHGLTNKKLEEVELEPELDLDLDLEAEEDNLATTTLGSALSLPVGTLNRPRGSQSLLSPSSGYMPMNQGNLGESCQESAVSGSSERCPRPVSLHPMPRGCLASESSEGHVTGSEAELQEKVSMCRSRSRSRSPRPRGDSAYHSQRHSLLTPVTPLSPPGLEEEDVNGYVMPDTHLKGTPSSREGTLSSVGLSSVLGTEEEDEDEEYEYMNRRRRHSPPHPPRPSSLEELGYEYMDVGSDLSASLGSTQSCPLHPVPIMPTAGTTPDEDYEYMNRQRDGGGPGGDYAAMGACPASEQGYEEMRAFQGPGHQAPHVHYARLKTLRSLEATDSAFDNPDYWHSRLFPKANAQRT

Row | BT474 pHER3 % inhibition [%] | BT474 pHER3 IC50 [pM] | SK-Br-3 pHER3 % inhibition [%] | SK-Br-3 pHER3 IC50 [pM] | MCF7 pHER3 % inhibition [%] | MCF7 pHER3 IC50 [pM] | Binder
1 | 45 | 4240 | 71 | 1000 | – | – | B1
2 | 62 | 1590 | 76 | 123 | 80 | 631 | B2
3 | 61 | 1050 | 74 | 70 | 83 | 540 | B3
4 | 62 | 708 | 79 | 106 | 72 | 354 | B4
5 | 44 | 6680 | 60 | 1440 | – | – | B5
6 | 49 | 3900 | 63 | 606 | – | – | B6
7 | 56 | 364 | 76 | 62 | – | – | B7
8 | 67 | 382 | 77 | 91 | – | – | B8
9 | 60 | 19500 | 77 | 107 | – | – | B9
10 | 70 | 431 | 77 | 124 | 74 | 277 | B10
11 | 73 | 657 | 80 | 217 | 79 | 331 | B11
12 | 66 | 322 | 78 | 95 | – | – | B12
13 | 61 | 806 | 79 | 227 | 71 | 374 | B13
14 | 41 | 271 | 70 | 90 | – | – | B14

Molecular target: T1, Human HER3, endogenous, on human cancer …
Assay: cell-based or functional assay
Remark: another data set of the same source

Row | BT-474 pAkt (S473) % inhibition [%] | BT-474 pAkt (S473) IC50 [pM] | SK-Br-3 pAkt (S473) % inhibition [%] | SK-Br-3 pAkt (S473) IC50 [pM] | MCF7 pAkt (S473) % inhibition [%] | MCF7 pAkt (S473) IC50 [pM] | Binder
15 | 76 | 39100 | 86 | 734 | – | – | B1
16 | 75 | 1190 | 91 | 89 | 67 | 296 | B4
17 | 60 | 17800 | 83 | 1640 | – | – | B5
18 | 64 | – | 84 | 465 | – | – | B6
19 | 83 | – | 86 | 52 | – | – | B7
20 | 78 | 371 | 90 | 110 | – | – | B8
21 | 76 | 378 | 84 | 76 | – | – | B9
22 | 81 | 274 | 91 | 60 | 76 | 248 | B10
23 | 79 | 645 | 91 | 131 | 79 | 468 | B11
24 | 86 | 189 | 90 | 107 | – | – | B12
25 | 73 | 1180 | 90 | 113 | 71 | 412 | B13
26 | 86 | 291 | 86 | 63 | – | – | B14

Molecular target: T1, Human HER3, endogenous, on human cancer …
Assay: cell-based or functional assay
Remark: another data set of the same source

Row | BT-474 proliferation % inhibition [%] | BT-474 proliferation IC50 [pM] | SK-Br-3 proliferation % inhibition [%] | SK-Br-3 proliferation IC50 [pM] | MCF7 proliferation % inhibition [%] | MCF7 proliferation IC50 [pM] | Binder
27 | 22 | 42800 | 40 | 3000 | – | – | B1
28 | – | – | 44 | 533 | 23 | 497 | B2
29 | – | – | 42 | 62 | 29 | 266 | B3
30 | 37 | 2560 | 45 | 2350 | 53 | – | B4
31 | 21 | 13800 | 34 | 5470 | – | – | B5
32 | 17 | 8000 | 40 | 6470 | – | – | B6
33 | 36 | 560 | 48 | 134 | – | – | B7
34 | 38 | 516 | 47 | 133 | – | – | B8
35 | 36 | 671 | 49 | 326 | – | – | B9
36 | 35 | 6260 | 41 | 230 | 49 | 151 | B10
37 | 41 | 738 | 52 | 207 | – | – | B11
38 | 42 | 710 | 50 | 97 | – | – | B12
39 | 27 | 3100 | 46 | 732 | – | – | B13
40 | 37 | 546 | 45 | 53 | – | – | B14

The binders below were run against T2, Hu HER3: CD33-[Human HER3, residues 20-640]-TAG (human, UniProt P21860 20-640) (assay: SET, IgG vs soluble HER3-Tag).
T2 construct: also called hu HER3-Tag; HER3-Tag; not shown: C-terminal TAG (e.g., FLAG TAG)
Description: Affinity determination in solution was essentially performed as previously described (Friguet et al., (1985) J Immunol Methods 77:305-19). In order to improve the sensitivity and accuracy of the SET method, it was transferred from classical ELISA to ECL based technology (Haenel et al., (2005) Anal Biochem 339:182-84).
The data was evaluated with XLfit software (ID Business Solutions) applying customized fitting models.
Antibody affinity was determined by solution equilibrium titration (SET) as described above. The results are summarized in Table 3 and example titration curves for MOR12616 and MOR12925 are contained in FIG. 1.

T2 sequence (P21860 20-640): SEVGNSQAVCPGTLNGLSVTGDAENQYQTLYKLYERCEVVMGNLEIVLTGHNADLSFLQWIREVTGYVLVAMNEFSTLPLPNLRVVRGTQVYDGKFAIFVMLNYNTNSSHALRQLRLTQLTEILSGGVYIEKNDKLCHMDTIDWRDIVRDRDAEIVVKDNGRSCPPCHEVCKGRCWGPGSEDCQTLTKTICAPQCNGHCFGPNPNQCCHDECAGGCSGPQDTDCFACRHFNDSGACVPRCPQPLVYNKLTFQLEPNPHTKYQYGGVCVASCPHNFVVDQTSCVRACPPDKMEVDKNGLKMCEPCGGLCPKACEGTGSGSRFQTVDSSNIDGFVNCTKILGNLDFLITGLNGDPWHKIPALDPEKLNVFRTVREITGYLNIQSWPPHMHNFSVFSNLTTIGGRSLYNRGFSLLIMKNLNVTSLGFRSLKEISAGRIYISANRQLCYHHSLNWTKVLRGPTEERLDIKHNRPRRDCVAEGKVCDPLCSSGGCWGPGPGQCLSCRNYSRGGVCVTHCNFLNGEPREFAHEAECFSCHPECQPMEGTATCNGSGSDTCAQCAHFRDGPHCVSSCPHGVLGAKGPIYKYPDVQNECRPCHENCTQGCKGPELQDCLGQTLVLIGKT

Row | Kd [pM] | Binder
41 | 96 | B1
42 | 54 | B4
43 | 160 | B5
44 | 290 | B6
45 | 28 | B7
46 | 21 | B8
47 | 27 | B9
48 | 51 | B10
49 | 24 | B11
50 | 25 | B12
51 | 64 | B13
52 | 25 | B14
